One assay concerns the target T1, macaca IL6R-his protein (macaca mulatta).
T1 chain: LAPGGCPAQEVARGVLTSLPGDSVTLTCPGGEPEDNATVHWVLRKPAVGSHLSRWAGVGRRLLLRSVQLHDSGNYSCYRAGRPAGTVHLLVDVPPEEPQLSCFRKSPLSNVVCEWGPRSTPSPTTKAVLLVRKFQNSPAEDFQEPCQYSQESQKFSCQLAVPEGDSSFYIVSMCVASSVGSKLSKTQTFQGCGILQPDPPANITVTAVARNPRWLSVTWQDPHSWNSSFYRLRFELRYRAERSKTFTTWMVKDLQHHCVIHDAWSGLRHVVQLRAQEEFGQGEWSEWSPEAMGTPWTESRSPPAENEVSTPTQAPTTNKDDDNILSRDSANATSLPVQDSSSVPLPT
Nature of the assay: indirect ELISA on plate-coated macaca IL6R-his. The procedure: The anti-IL6R antibodies were tested for their cross-reaction with macaca IL6R. Briefly, 96-well micro plates were coated with 2 μg/ml macaca IL6R-his protein (in house made, amino acid sequence set forth in SEQ ID NO:45) in carbonate/bicarbonate buffer (pH 9.6), 100 μl/well, for 2 hours at 37° C. ELISA plates were washed once with wash buffer (PBS+0.05% v/v Tween-20, PBST) and then blocked with 200 μl/well blocking buffer (5% w/v non-fatty milk in PBST) for 2 hours at 37° C. Plates were washed 4 times and incubated with 100 μl/well serially diluted anti-IL6R antibodies of the disclosure or controls, starting at 66.67 nM with 5-fold serial dilution in PBST with 2.5% w/v non-fat milk, and incubated at 37° C. for 40 minutes. ELISA plates were washed 4 times again and incubated with 100 μl/well Peroxidase AffiniPure Goat Anti-Mouse IgG, Fcγ Fragment Specific (1:5000 dilution in PBST buffer, Jackson ImmunoResearch Laboratories, Inc., Cat #115-035-071) for 40 minutes at 37° C. After the final wash, plates were incubated with 100 μl/well TMB (InnoReagents). The reaction was stopped 3-10 minutes later at room temperature with 50 μl/well 1M H₂SO₄, and the absorbance of each well was read on a microplate reader using dual wavelength mode with 450 nm for TMB and 630 nm as the reference wavelength. Then the OD (450-630) values were plotted against antibody concentration. Data was analyzed using Graphpad Prism software and EC₅₀ values were reported.
For orientation: In an ELISA, binding on a coated surface is turned into a signal by an enzyme label.

Assay [1] has as its target T2, human IL6R-Fc protein (human, biotin-labeled in the ELISAs (sites not given)).
T2 construct: In house made; also called biotin-labeled human IL6R-Fc protein
Nature of the assay: ligand blocking ELISA: antibody pre-incubated with biotin-labeled human IL6R-Fc, added to plate-coated human IL6 (blocked ligand: human IL6).

Assay [2] deals with T3, recombinant human IL6R-his (human, UniProt P08887 20-365).
T3 construct: In house made; the entry includes the C-terminal His tag; also called human IL6R-his protein
T3 sequence: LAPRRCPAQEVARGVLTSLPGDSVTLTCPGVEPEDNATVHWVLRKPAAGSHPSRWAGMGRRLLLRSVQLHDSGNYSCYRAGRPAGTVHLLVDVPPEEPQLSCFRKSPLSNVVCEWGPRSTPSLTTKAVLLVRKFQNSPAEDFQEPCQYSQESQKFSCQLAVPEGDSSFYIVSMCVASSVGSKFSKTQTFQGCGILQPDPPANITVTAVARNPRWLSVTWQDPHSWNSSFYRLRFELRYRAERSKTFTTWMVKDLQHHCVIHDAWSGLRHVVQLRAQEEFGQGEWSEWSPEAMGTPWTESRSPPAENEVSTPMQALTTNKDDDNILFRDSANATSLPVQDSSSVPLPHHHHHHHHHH
Nature of the assay: SPR Biacore; antibody captured by anti-human IgG on CM5, human IL6R-his at 100 nM. The procedure:
(§1) Un-reacted moieties on the biosensor surface were blocked with ethanolamine. […] Then, serially diluted recombinant human IL6R-his (in house made, amino acid sequence set forth in SEQ ID NO: 44) or macaca IL6R-his protein (in house made, amino acid sequence set forth in SEQ ID NO: 45), starting at 100 nM with a 2-fold serial dilution in HBS-EP⁺ buffer (provided by Biacore), was flowed onto the chip at a flow rate of 30 μL/min. The antigen-antibody association kinetics was followed for 2 minutes and the dissociation kinetics was followed for 10 minutes. The association and dissociation curves were fit to a 1:1 Langmuir binding model using BIAcore evaluation software.
The recombinant human IL6R-his (amino acid sequence set forth in SEQ ID NO: 44) at the concentration of 100 nM instead of serially diluted recombinant human IL6R-his, was flowed onto the chip at a flow rate of 30 μL/min.
A general note: Surface plasmon resonance follows binding to a sensor surface in real time, without labels.

Assay [3] deals with T3, recombinant human IL6R-his. Nature of the assay: SPR Biacore; antibody at 10 ug/ml captured by anti-human IgG on CM5, human IL6R in flow. The procedure: as §1
Cell supernatants containing humanized antibodies were harvested after six days in shaking flasks and directly subjected to BIAcore test following the protocol described above with modifications.

For assay [4], the target named is T2, human IL6R-Fc protein. Nature of the assay: benchmark blocking ELISA: antibody pre-incubated with biotin-labeled human IL6R-Fc, added to plate-coated Tocilizumab (competitor: Tocilizumab).

These results are taken from US20230167182A1 (BIOSION, published 2023).

In general, EC50 refers to the concentration giving half of the maximal effect. Broadly, the IC50 is the concentration at which inhibition is half-maximal. Higher therefore signals a need for much substance. The Kd is the equilibrium constant for the complex coming apart. For orientation: koff means the first-order rate constant of dissociation. As a reminder, the kon is the rate constant with which the complex forms.

Substitutions are numbered along the chain they refer to.

B1: Tocilizumab (antibody, human IgG1, kappa, V domains shown)
VH: QVQLQESGPGLVRPSQTLSLTCTVSGYSITSDHAWSWVRQPPGRGLEWIGYISYSGITTYNPSLKSRVTMLRDTSKNQFSLRLSSVTAADTAVYYCARSLARTTAMDYWGQGSLVTVSS
VL: DIQMTQSPSSLSASVGDRVTITCRASQDISSYLNWYQQKPGKAPKLLIYYTSRLHSGVPSRFSGSGSGTDFTFTISSLQPEDIATYYCQQGNTLPYTFGQGTKVEIKR
notes: In house made; also called benchmark; Actemra
The molecule B1 returned an EC50 with macaca IL6R-his protein of 58.9 pM. Besides, the IC50 came to 616 pM in the assay with human IL6R-Fc protein [1] and 770 pM with human IL6R-Fc protein [4]. For the same molecule, the Kd came out at 3260 pM in assay [2] and 3810 pM in assay [3].

B2: mouse anti-IL6R monoclonal antibody 1H9 (antibody, V domains shown)
VH: QVQLQQPGAELVKPGASVKLSCKASGYTFTSYWMHWVKLRPGQGLEWIGEINPTNGRTNYYEKFKNRATLTADKSSSTAYMQLSSLTFEDSAVYFCAKFHYSRWYFDVWGTGTTVTVSS
VL: DIVMTQSQKFMSTSVGDRVSITCKASQNVGTAVVWYQQKPGQSPKLLINPASNRYTGVPDRFTGSGSGTDFTLTISNMQSEDLADYFCQQYSSYPLTFGAGTKLELK
notes: Mouse hybridoma mAb
Regarding B2, the figures for the IC50 in the assay with human IL6R-Fc protein [1] and with human IL6R-Fc protein [4] were 274 pM and 394 pM, respectively.

B3: mouse anti-IL6R monoclonal antibody 1A3 (antibody, V domains shown)
VH: QVQLQQPGAELVKPGASVKLSCKASGYTFTSYWMHWVKQRPAQGLEWIGEINPSNGRTNFNEKFKTKATLTVDKSSNTAYMQLSSLTSEDSAVYSCLRLNTHYVFDYWGQGTTLTVSS
VL: EIVLTQSPTTMAASPGEKITITCSASSSISSNYLHWYQQKPGFSPKLLISRTSNLASGVPTRFSGSGSGTSYSLTIGTMEAGDVATYYCQQGSGIPFTFGSGTKLEIK
notes: Mouse hybridoma mAb purified on Protein A
The molecule B3 displayed an EC50 in the assay with macaca IL6R-his protein of 228 pM.

B4: Chimeric 1H7 (antibody, human IgG1, kappa, V domains shown)
VH: QVQLQQPGTELVKPGASVKLSCKASGYTFTNYWMHWVKQRPGQGLDWIGEINPTNGRTNYNENFKSKATLTVDKSSSTAYMQLSSLTSEDSAVYYCARLNTHYVFDSWGQGTTLTLSS
VL: EIVLTQSPTTLAASPGEKITFTCSVSSSISSNYLHWYQQKPGFSPKLLISRTSTLASGVPARFSGSGSGTSYSLTIGTMEAEDVATYYCQQGSGIPFTFGSGTKLELKR
notes: Mouse variable regions on human IgG1 / human kappa constant regions; also called chimeric antibody 1H7
Regarding B4, in assay [2], the Kd is 400 pM, the koff came to 5.21e-05 s⁻¹ and the kon was 130000 M⁻¹ s⁻¹. In assay [3], the Kd stood at 604 pM, the koff turned out to be 0.000123 s⁻¹ and the kon came to 204000 M⁻¹ s⁻¹.

B5: mouse anti-IL6R monoclonal antibody 1D4 (antibody, V domains shown)
VH: B4 VH with T9A, N31S, Q39V, D46E, N63D, D73N, K74S, S107Y, L116V
VL: B3 VL with T10I, M11L, I21F, A25V, S50Y, T61A, G82E
notes: Mouse hybridoma mAb
B5 showed a half-maximal effective concentration (EC50) with macaca IL6R-his protein of 175 pM.
